Measurements as given in US20240116985A1, “STAPLED PEPTIDES AND METHODS THEREOF” (priority 2020, published 2024).
Starred links: 1 amine or outer side, 2 acyl side, 3 side chain; linkers in the order of their positions; H or OH if unused. Positions of bridges follow the written chain, without caps; N, C: chain ends. Non-standard residues stand in square brackets, D forms with d. Primed or numbered codes have the meaning given here. PyrS2″ = (S)-3-amino-1-((pent-4-en-1-yloxy)carbonyl)pyrrolidine-3-carboxylic acid (stapling residue), C=CCCCOC(=O)N1CC[C@@](N[*:1])(C(=O)[*:2])C1; (bismethoxyethylamine)GlnR = [bismethoxyethylamine]GlnR, N5,N5-bis(2-methoxyethyl)-L-glutamine, COCCN(CCOC)C(=O)CC[C@H](N[*:1])C(=O)[*:2]; B5(4) = 2,2-bis(4-pentenyl)glycine = 2-amino-2-(pent-4-en-1-yl)hept-6-enoic acid (stitching residue), C=CCCCC(CCCC=C)(N[*:1])C(=O)[*:2]; B5(5) = 2,2-bis(4-pentenyl)glycine, 2-amino-2-(pent-4-en-1-yl)hept-6-enoic acid (stitching residue), C=CCCCC(CCCC=C)(N[*:1])C(=O)[*:2]; 5F3Me3COOHF = (S)-3-(2-amino-2-carboxyethyl)-5-(trifluoromethyl)benzoic acid, O=C([C@H](Cc1cc(C(=O)[*:3])cc(C(F)(F)F)c1)N[*:1])[*:2]; PyrS2 = (S)-3-amino-1-((pent-4-en-1-yloxy)carbonyl)pyrrolidine-3-carboxylic acid, C=CCCCOC(=O)N1CC[C@@](N[*:1])(C(=O)[*:2])C1; B5(19) = 2-amino-2-(pent-4-en-1-yl)hept-6-enoic acid (bis(4-pentenyl)glycine), C=CCCCC(CCCC=C)(N[*:1])C(=O)[*:2]; 4F3COOHF = (S)-5-(2-amino-2-carboxyethyl)-2-fluorobenzoic acid, O=C([C@H](Cc1ccc(F)c(C(=O)[*:3])c1)N[*:1])[*:2]; B5(25) = 2-amino-2-(pent-4-en-1-yl)hept-6-enoic acid (stitching residue), C=CCCCC(CCCC=C)(N[*:1])C(=O)[*:2]; (CyPr)‑3SF = (S)-2-amino-3-(3-cyclopropylphenyl)propanoic acid, O=C([C@H](Cc1cccc(C2CC2)c1)N[*:1])[*:2]; B5(3) = 2,2-bis(4-pentenyl)glycine (stitching residue), C=CCCCC(CCCC=C)(N[*:1])C(=O)[*:2]; PyrR = (R)-1-((allyloxy)carbonyl)-3-aminopyrrolidine-3-carboxylic acid; RbGlu = 3-aminopentanedioic acid, R/S prefix not explained; SbGlu = 3-aminopentanedioic acid, R/S prefix not explained; Phe(3-Ph) = N[C@@H](Cc1cccc(-c2ccccc2)c1)C(=O)O; Phe(3-COOH) = N[C@@H](Cc1cccc(C(=O)O)c1)C(=O)O; 2F3MeF = Cc1cccc(C[C@H](N[*:1])C(=O)[*:2])c1F; Phe(2-CF3) = N[C@@H](Cc1ccccc1C(F)(F)F)C(=O)O; Ala(4-thiazolyl) = N[C@@H](Cc1cscn1)C(=O)O; Phe(4-Cl) = N[C@@H](Cc1ccc(Cl)cc1)C(=O)O; dαMeGly(allyl) = C=CC[C@@](C)(N)C(=O)O; Bta = N[C@@H](Cc1csc2ccccc12)C(=O)O; Lys(iPr) = CC(C)NCCCC[C@H](N)C(=O)O; αAllylPro = C=CC[C@@]1(C(=O)O)CCCN1; tBuAla = CC(C)(C)C[C@H](N)C(=O)O; 2Thi = N[C@@H](Cc1cccs1)C(=O)O; 3Thi = N[C@@H](Cc1ccsc1)C(=O)O; Cha = N[C@@H](CC1CCCCC1)C(=O)O; S8 = C=CCCCCCC[C@](C)(N)C(=O)O; R5 = C=CCCC[C@@](C)(N)C(=O)O; hSer = N[C@@H](CCO)C(=O)O; 34ClF = not defined here; Nle = CCCC[C@H](N)C(=O)O; Abu = CC[C@H](N)C(=O)O; Aib = CC(C)(N)C(=O)O

B1: I-2569 (peptide)
peptide: Ac-[PyrR]ED[tBuAla][B5(25)]D[Phe(3-COOH)]AAFL[PyrS2″][Phe(2-CF3)][Bta]Q-NH2
modifications: staple 1-5, 5-12 (inferred); not fully specified; printed as Ac-PyrR-Glu-Asp-Npg-B5-Asp-3COOHF-Ala-Ala-Phe-Leu-PyrS2-2F3MeF-BztA-Gln-NH2
B2: I-2568 (peptide)
peptide: Ac-[PyrR]AD[tBuAla][B5(25)]D[Phe(3-COOH)]AAFL[PyrS2″][Phe(2-CF3)][Bta]Q-NH2
modifications: staple 1-5, 5-12 (inferred); not fully specified; printed as Ac-PyrR-Ala-Asp-Npg-B5-Asp-3COOHF-Ala-Ala-Phe-Leu-PyrS2-2F3MeF-BztA-Gln-NH2

molecular target: Bcat-Halo (UniProt P35222); experiment: NanoBRET Abs IC50, Bcat-Halo/TCF4-Luc in HEK293 cells
Sequence (P35222 whole entry): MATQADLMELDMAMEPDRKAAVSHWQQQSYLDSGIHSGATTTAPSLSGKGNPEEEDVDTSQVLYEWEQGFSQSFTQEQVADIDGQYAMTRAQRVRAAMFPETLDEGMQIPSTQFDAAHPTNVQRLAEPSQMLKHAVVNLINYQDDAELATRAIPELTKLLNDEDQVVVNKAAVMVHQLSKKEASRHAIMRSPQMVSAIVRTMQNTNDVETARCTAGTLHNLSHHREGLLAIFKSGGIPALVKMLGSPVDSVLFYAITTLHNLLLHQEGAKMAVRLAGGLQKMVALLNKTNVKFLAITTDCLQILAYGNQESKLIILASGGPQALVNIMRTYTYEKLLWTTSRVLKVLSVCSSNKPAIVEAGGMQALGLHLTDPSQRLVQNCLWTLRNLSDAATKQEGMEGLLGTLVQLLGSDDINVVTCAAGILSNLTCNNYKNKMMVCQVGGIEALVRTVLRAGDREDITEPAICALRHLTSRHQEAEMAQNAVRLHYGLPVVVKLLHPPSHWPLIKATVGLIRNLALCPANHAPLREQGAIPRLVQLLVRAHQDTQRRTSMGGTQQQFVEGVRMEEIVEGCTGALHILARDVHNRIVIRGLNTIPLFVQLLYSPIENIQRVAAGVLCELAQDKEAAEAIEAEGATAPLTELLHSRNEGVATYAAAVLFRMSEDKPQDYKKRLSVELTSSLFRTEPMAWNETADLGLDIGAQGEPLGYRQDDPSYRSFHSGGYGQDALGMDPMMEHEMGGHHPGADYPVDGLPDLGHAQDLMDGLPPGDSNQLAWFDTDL

Binder	IC50 [nM]
Ac-[αAllylPro]D[tBuAla][B5(5)]D[5F3Me3COOHF]QAFL[PyrS2][3Thi][Bta]A-NH2 (staple 1-4, 4-11) [I-2211]	12900
Ac-[αAllylPro]D[tBuAla][B5(3)]D[Phe(3-COOH)]AAFL[PyrS2″][3Thi][Phe(4-Cl)]Q-NH2 (staple 1-4, 4-11) [I-2220]	16300
Ac-[αAllylPro]D[tBuAla][B5(3)]D[Phe(3-COOH)]AAFL[PyrS2″][3Thi][34ClF]Q-NH2 (staple 1-4, 4-11; reading uncertain) [I-2216]	3400
Ac-[αAllylPro]D[tBuAla][B5(3)]D[Phe(3-COOH)]QAFL[PyrS2″][2F3MeF][34ClF]A-NH2 (staple 1-4, 4-11; reading uncertain) [I-2219]	2700
Ac-[αAllylPro]D[tBuAla][B5(5)]D[4F3COOHF]QAFL[PyrS2][3Thi][Bta]A-NH2 (staple 1-4, 4-11) [I-2206]	7100
Ac-[αAllylPro]D[tBuAla][B5(3)]D[Phe(3-COOH)]AAFL[PyrS2″][2F3MeF][34ClF]S-NH2 (staple 1-4, 4-11; reading uncertain) [I-2218]	5100

molecular target: full-length beta-Catenin (Uniprot ID P35222) (Homo sapiens (Human)) (UniProt P35222); experiment: fluorescence polarization competition against 5FAM-TCF4 10-53
Target sequence in this assay (P35222 whole entry, one chain of several): as the sequence (P35222 whole entry) above

Binder	IC50 [nM]
Ac-[αAllylPro]D[tBuAla][B5(5)]D[5F3Me3COOHF]QAFL[PyrS2][3Thi][Bta]A-NH2 (staple 1-4, 4-11) [I-2211]	23
Ac-[αAllylPro]D[tBuAla][B5(3)]D[Phe(3-COOH)]AAFL[PyrS2″][3Thi][Phe(4-Cl)]Q-NH2 (staple 1-4, 4-11) [I-2220]	12
Ac-[αAllylPro]D[tBuAla][B5(3)]D[Phe(3-COOH)]AAFL[PyrS2″][Phe(3-Ph)]FQ-NH2 (staple 1-4, 4-11) [I-2214]	1860
Ac-[αAllylPro]D[tBuAla][B5(3)]D[Phe(3-COOH)]AAFL[PyrS2″][3Thi][34ClF]Q-NH2 (staple 1-4, 4-11; reading uncertain) [I-2216]	7
Ac-[αAllylPro]D[tBuAla][B5(3)]D[Phe(3-COOH)]AAFL[PyrS2″][(CyPr)‑3SF]FQ-NH2 (staple 1-4, 4-11) [I-2215]	1540
Ac-[αAllylPro]D[tBuAla][B5(3)]D[Phe(3-COOH)]QAFL[PyrS2″][2F3MeF][34ClF]A-NH2 (staple 1-4, 4-11; reading uncertain) [I-2219]	21
Ac-[αAllylPro]D[tBuAla][B5(5)]D[4F3COOHF]QAFL[PyrS2][3Thi][Bta]A-NH2 (staple 1-4, 4-11) [I-2206]	7
Ac-[αAllylPro]D[tBuAla][B5(3)]D[Phe(3-COOH)]AAFL[PyrS2″][2F3MeF][34ClF]S-NH2 (staple 1-4, 4-11; reading uncertain) [I-2218]	34

molecular target: full-length beta-Catenin (Uniprot ID P35222) (Homo sapiens (Human)) (UniProt P35222); experiment: fluorescence polarization competition; competitor 5FAM-TCF4(10-53) on full-length beta-catenin
Target sequence in this assay (P35222 whole entry, one chain of several): as the sequence (P35222 whole entry) above

Binder	IC50 [nM]
Ac-[αAllylPro]D[tBuAla][B5(4)]D[Phe(3-COOH)][Aib]AF[Abu][PyrS2″][3Thi][Bta][(bismethoxyethylamine)GlnR]-NH2 (staple 1-4, 4-11) [I-2559]	8
B1	1950
Ac-P[dαMeGly(allyl)]D[tBuAla][B5(4)]D[Phe(3-COOH)]AAFL[PyrS2″][Phe(2-CF3)][Bta]Q-NH2 (staple 5-12, 2-5; also: -CH=CH- in each staple reduced to -CH2-CH2-) [I-2572]	67
Ac-P[R5]D[tBuAla][B5(25)]D[Phe(3-COOH)]AAFL[PyrS2″][Phe(2-CF3)][Bta]Q-NH2 (staple 5-12, 2-5; also: staple -CH=CH- reduced to -CH2-CH2-) [I-2573]	234
Ac-P[R5]D[tBuAla][B5(25)]D[Phe(3-COOH)]AAFL[PyrS2″][Phe(2-CF3)][Bta]Q-NH2 (staple 5-12, 2-5) [I-2567]	522
Ac-P[dαMeGly(allyl)]D[tBuAla][B5(25)]D[Phe(3-COOH)]AAFL[PyrS2″][Phe(2-CF3)][Bta]Q-NH2 (staple 5-12, 2-5) [I-2566]	181
Ac-[αAllylPro]D[tBuAla][B5(4)]D[Phe(3-COOH)][Aib]AF[Nle][PyrS2″][3Thi][Bta][(bismethoxyethylamine)GlnR]-NH2 (staple 1-4, 4-11) [I-2554]	8
B2	4770

molecular target: full-length beta-Catenin (Uniprot ID P35222) (Homo sapiens (Human)) (UniProt P35222); experiment: fluorescence polarization competition; full-length beta-catenin, competitor 5FAM-TCF4(10-53) probe
Target sequence in this assay (P35222 whole entry, one chain of several): as the sequence (P35222 whole entry) above

Binder	IC50 [nM]
Ac-[αAllylPro]DI[B5(4)]DEA[Nle]FQ[S8]F[Bta]Q-NH2 (staple 1-4, 4-11) [I-667]	585
Ac-[αAllylPro]DI[B5(19)]DEA[Nle]FQ[S8]F[Bta]Q-NH2 (staple 1-4, 4-11) [I-666]	626
Ac-[αAllylPro]DI[B5(4)][RbGlu]EAAFQ[S8]F[Bta]Q-NH2 (staple 1-4, 4-11) [I-675]	4520
Ac-[αAllylPro]DI[B5(4)]DE[Nle]AFQ[S8]F[Bta]Q-NH2 (staple 1-4, 4-11) [I-657]	46
Ac-[αAllylPro][SbGlu]I[B5(4)]DEAAFQ[S8]F[Bta]Q-NH2 (staple 1-4, 4-11) [I-672]	5000
Ac-[αAllylPro]DI[B5(4)]DE[Nle]AFQ[S8]F[Bta]Q-NH2 (staple 1-4, 4-11) [I-656]	73
Ac-[αAllylPro]DI[B5(4)][SbGlu]EAAFQ[S8]F[Bta]Q-NH2 (staple 1-4, 4-11) [I-676]	5000

molecular target: full-length beta-Catenin (Uniprot ID P35222) (Homo sapiens (Human)) (UniProt P35222); experiment: fluorescence polarization competition, full-length beta-catenin with 5FAM-TCF4(10-53) probe as competitor
Target sequence in this assay (P35222 2-781 limits assumed): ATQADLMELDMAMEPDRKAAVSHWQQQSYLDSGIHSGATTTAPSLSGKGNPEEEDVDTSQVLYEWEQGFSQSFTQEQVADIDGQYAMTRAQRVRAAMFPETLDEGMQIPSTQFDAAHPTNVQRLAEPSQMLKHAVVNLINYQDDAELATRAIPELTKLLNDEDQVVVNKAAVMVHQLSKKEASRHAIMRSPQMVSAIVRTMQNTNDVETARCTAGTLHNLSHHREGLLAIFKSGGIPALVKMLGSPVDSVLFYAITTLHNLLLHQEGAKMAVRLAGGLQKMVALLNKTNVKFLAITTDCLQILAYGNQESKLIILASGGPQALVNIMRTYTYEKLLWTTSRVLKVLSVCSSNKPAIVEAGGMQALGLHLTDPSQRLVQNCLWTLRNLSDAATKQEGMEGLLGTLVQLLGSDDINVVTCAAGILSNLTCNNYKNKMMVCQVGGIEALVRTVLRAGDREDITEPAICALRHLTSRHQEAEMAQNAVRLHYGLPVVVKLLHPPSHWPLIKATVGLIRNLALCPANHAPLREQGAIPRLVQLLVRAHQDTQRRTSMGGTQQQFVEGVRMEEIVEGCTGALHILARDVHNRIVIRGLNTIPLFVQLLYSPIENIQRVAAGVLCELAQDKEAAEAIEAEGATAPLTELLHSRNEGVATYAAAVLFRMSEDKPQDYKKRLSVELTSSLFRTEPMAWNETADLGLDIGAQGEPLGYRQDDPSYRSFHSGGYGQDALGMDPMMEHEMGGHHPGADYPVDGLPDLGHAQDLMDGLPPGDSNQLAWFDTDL

Binder	EC50 [nM]
Ac-[αAllylPro]DI[B5(4)]DEA[Nle]FQ[S8]F[Bta]Q-NH2 (staple 1-4, 4-11) [I-667]	585
Ac-[αAllylPro]DI[B5(19)]DEA[Nle]FQ[S8]F[Bta]Q-NH2 (staple 1-4, 4-11) [I-666]	626
Ac-[αAllylPro]DI[B5(4)][RbGlu]EAAFQ[S8]F[Bta]Q-NH2 (staple 1-4, 4-11) [I-675]	4520
Ac-[αAllylPro]DI[B5(4)]DE[Nle]AFQ[S8]F[Bta]Q-NH2 (staple 1-4, 4-11) [I-657]	46
Ac-[αAllylPro][SbGlu]I[B5(4)]DEAAFQ[S8]F[Bta]Q-NH2 (staple 1-4, 4-11) [I-672]	5000
Ac-[αAllylPro]DI[B5(4)]DE[Nle]AFQ[S8]F[Bta]Q-NH2 (staple 1-4, 4-11) [I-656]	73
Ac-[αAllylPro]DI[B5(4)][SbGlu]EAAFQ[S8]F[Bta]Q-NH2 (staple 1-4, 4-11) [I-676]	5000

molecular target: full-length beta-Catenin (Uniprot ID P35222) (Homo sapiens (Human)) (UniProt P35222); experiment: fluorescence polarization competition; 10 nM full-length beta-catenin + 10 nM 5FAM-TCF4(10-53), peptide titrated
Target sequence in this assay (P35222 whole entry, one chain of several): as the sequence (P35222 whole entry) above

Binder	IC50 [nM]
Ac-[αAllylPro]N[Cha][B5(5)]DQ[Lys(iPr)]AFN[PyrS2″]F[Bta]-NH2 (staple 1-4, 4-11) [I-2073]	398
Ac-[αAllylPro]N[Cha][B5(5)]DQ[Lys(iPr)]AFN[PyrS2″][3Thi][Bta][hSer]-NH2 (staple 1-4, 4-11) [I-2074]	789
Ac-[αAllylPro]D[tBuAla][B5(4)]D[Phe(3-COOH)]AAFL[PyrS2″][Phe(2-CF3)][Bta][dA]-NH2 (staple 1-4, 4-11) [I-2091]	49
Ac-[αAllylPro]N[Cha][B5(5)]DQ[Lys(iPr)]A[Ala(4-thiazolyl)]N[PyrS2″]F[Bta][hSer]-NH2 (staple 1-4, 4-11) [I-2072]	8260
Ac-[αAllylPro]D[tBuAla][B5(4)]D[Phe(3-COOH)]AAFF[PyrS2″][2F3MeF][Bta][dA]-NH2 (staple 1-4, 4-11) [I-2095]	78
Ac-[αAllylPro]N[Cha][B5(5)]DQ[Lys(iPr)]AFN[PyrS2″][2Thi][Bta][hSer]-NH2 (staple 1-4, 4-11) [I-2075]	2330
Ac-[αAllylPro]D[tBuAla][B5(4)]D[Phe(3-COOH)]AAFF[PyrS2″][Phe(2-CF3)][Bta][dQ]-NH2 (staple 1-4, 4-11) [I-2093]	43
